One experiment has as its target ErbB2-ECD (Homo sapiens, UniProt P04626). The experiment can be described thus: SPR binding studies with immobilized ErbB2-ECD. Particulars: result in words. As for the experimental part: Using a ProteOn XPR36 instrument, ErbB2-ECD was immobilized at 25° C. onto a GLC sensor chip surface (Bio-Rad), with HBS-P+ running buffer (10 mM HEPES, pH 7.4, 150 mM NaCl, 0.05% Tween 20). Standard amine coupling methodology described in Bio-Rad's amine coupling kit was utilized for this immobilization. Lane 1 was activated with a 50:50 mixture of EDC (0.5 mM) and sulfo-NHS (0.125 mM). ErbB2 protein was diluted to […] in 10 mM sodium acetate, pH 5.0 and injected over the activated surface channel. Any remaining activated sites were blocked with 1 M ethanolamine-HCl, pH 8.5.
All SPR binding experiments were performed at 25° C. using HBS-EP+/BSA (10 mM HEPES, pH 7.4, 150 mM NaCl, 3 mM EDTA, 0.05% Tween20, 0.1 mg/ml BSA) as the instrument running buffer (RB). Following immobilization procedures, various concentrations of anti-ErbB2 affibodies and their MMAE-dendrimer conjugates were injected at 60 μl/min over immobilized ErbB2 proteins and their association monitored for 90 sec. Running buffer was subsequently injected over bound Ab-ErbB2 complexes and dissociation monitored for up to 60 min. […] All binding measurements were performed in triplicate.
Collected experimental data were processed using Scrubber-Pro software (www.biologic.com.au). […]

In experiment [1] the target is T1, HER2 (human epidermal growth factor receptor 2) on cells (human, UniProt P04626 23-1255).
T1 construct: whole, on cells; also called ERBB2; HER2 receptor
The experiment can be described thus: flow cytometry (Cy5), MDA-MB-231/HER2 cells, 3.33 nM, 37 °C, 0.5 h. The method, then: (§1) After incubation, non-binding/non-associating particles were removed from adherent cells by gently washing with DPBS three times (300 μL/well). Cells were removed from plates by treatment with TrypLE™ Express Enzyme (1×), no phenol red (150 μL/well) for 5-10 min at room temperature. The plates were then placed on ice. Cellular binding and association of sample were then determined through flow cytometry by the acquisition of the signal from Cy5.
(§2) To measure internalisation kinetics, nanobody-dendrimer was incubated with cells for 24, 4, 1, 0.5, and 0.1 hours at 37° C. before unbound nanobody-dendrimer was removed by washing and analysed by flow cytometry.

Experiment [2] concerns the target T1, HER2 (human epidermal growth factor …). The experiment can be described thus: flow cytometry (Cy5), MDA-MB-231/HER2 cells, 0.5 h.
Experiment [3] shares this target. The experiment can be described thus: flow cytometry (Cy5), MDA-MB-231 parental cells (HER2 lo, control), 3.33 nM, 37 °C, 0.5 h. The method, then:
as §1, §2

The target is the same in experiment [4]. The experiment can be described thus: flow cytometry (Cy5), MDA-MB-231 parental cells (HER2 lo, control), 3.33 nM, 37 °C, 4 h. As for the experimental part:
as §1, §2

Experiment [5] has the same target. The experiment can be described thus: flow cytometry (Cy5), MDA-MB-231/HER2 cells, 2 h.
The target is the same in experiment [6]. The experiment can be described thus: flow cytometry (Cy5), MDA-MB-231 parental cells (HER2 lo, control), 0.25 h.
Experiment [7] shares this target. The experiment can be described thus: flow cytometry (Cy5), MDA-MB-231/HER2 cells, 3.33 nM, 37 °C, 2 h.
The target is the same in experiment [8]. The experiment can be described thus: flow cytometry (Cy5), MDA-MB-231 parental cells (HER2 lo, control), 2 h.
The target is the same in experiment [9]. The experiment can be described thus: flow cytometry (Cy5), MDA-MB-231/HER2 cells, 3.33 nM, 37 °C, 4 h.
Experiment [10] has the same target. The experiment can be described thus: flow cytometry (Cy5), MDA-MB-231/HER2 cells, 1 h.
The target is the same in experiment [11]. The experiment can be described thus: flow cytometry (Cy5), MDA-MB-231/HER2 cells, 24 h.
The target is the same in experiment [12]. The experiment can be described thus: flow cytometry (Cy5), MDA-MB-231 parental cells (HER2 lo, control), 4 h.
Experiment [13] has the same target. The experiment can be described thus: flow cytometry (Cy5), MDA-MB-231/HER2 cells, 4 h.
Experiment [14] has the same target. The experiment can be described thus: flow cytometry (Cy5), MDA-MB-231 parental cells (HER2 lo, control), 3.33 nM, 37 °C, 1 h.
For experiment [15] the target is unchanged. The experiment can be described thus: flow cytometry (Cy5), MDA-MB-231 parental cells (HER2 lo, control), 3.33 nM, 37 °C, 0.25 h. As for the experimental part: as §1, §2
Experiment [16] shares this target. The experiment can be described thus: flow cytometry (Cy5), MDA-MB-231 parental cells (HER2 lo, control), 0.5 h.
Experiment [17] shares this target. The experiment can be described thus: flow cytometry (Cy5), MDA-MB-231/HER2 cells, 3.33 nM, 37 °C, 1 h.
Experiment [18] has the same target. The experiment can be described thus: flow cytometry (Cy5), MDA-MB-231 parental cells (HER2 lo, control), 24 h.
Experiment [19] has the same target. The experiment can be described thus: flow cytometry (Cy5), MDA-MB-231 parental cells (HER2 lo, control), 3.33 nM, 37 °C, 24 h. As for the experimental part: as §1, §2
For experiment [20] the target is unchanged. The experiment can be described thus: flow cytometry (Cy5), MDA-MB-231 parental cells (HER2 lo, control), 1 h.
Experiment [21] has the same target. The experiment can be described thus: flow cytometry (Cy5), MDA-MB-231/HER2 cells, 3.33 nM, 37 °C, 24 h.
For experiment [22] the target is unchanged. The experiment can be described thus: flow cytometry (Cy5), MDA-MB-231 parental cells (HER2 lo, control), 3.33 nM, 37 °C, 2 h. As for the experimental part: as §1, §2
Experiment [23] has the same target. The experiment can be described thus: flow cytometry (Cy5), MDA-MB-231/HER2 cells, 3.33 nM, 37 °C, 0.25 h. As for the experimental part: as §1, §2
The target is the same in experiment [24]. The experiment can be described thus: flow cytometry (Cy5), HER2-positive MDA-MB-453 cells, triplicate wells.
For experiment [25] the target is unchanged. The experiment can be described thus: flow cytometry (Cy5), MDA-MB-231/HER2 cells, 0.25 h.

Consider “Azido-PEG24CO—[N(PN)2][Lys]2[Lys]4[Lys]8[(α-NHGlu-vc-PAB-MMAE)8(ε-NH-COPEG1100)8], G3 [Compound 65]”, for which, at ErbB2-ECD, the “binding to ErbB2 proteins (SPR)” value is on record as “No binding”.
Regarding “Azido-PEG24CO—[N(PN)2][Lys]2[Lys]4[Lys]8[(α-NHGlu-vc-PAB-MMAE)8(ε-NH-COPEG2000)8], G3 [Compound 66]”, the “binding to ErbB2 proteins (SPR)” value on ErbB2-ECD is on record as “No binding”.

B1: Nanobody*-N3/DBCO-NHCO-PEG12TCO/(MeTzPh)PEG4CO-NHPEG24CO-[N(PN)2][Lys]4[Lys]8[((α-NHCy5)1(α-NHAc)7)(ε-NH-COPEG1100)8], Compound 124 (VHH)
VHH: EVQLVESGGSLVQPGGSLRLSCAASGFTFDDYAMSWVRQVPGKGLEWVSSINWSGTHTDYADSVKGRFTISRNNANNTLYLQMNSLKSEDTAVYYCAKNWRDAGTTWFEKSGSAGQGTQVTVSS
modifications: C-terminal # (unnatural amino acid, p-azido-phenylalanine) clicked to DBCO-NHCO-PEG12-TCO, joined to the tetrazine at the core of the G3 lysine dendrimer Compound 52 (1 Cy5, 7 acetyl, 8 PEG1100)
notes: also called G3 2D3 conjugated dendrimer
Turning to B1, the “percent of cellular association” value in experiment [1] worked out at 0.6%; in [3], 0.87%; in experiment [4], 0.93%; in [7], 17.4%; in experiment [9] it was 50.6%; in experiment [14] it was 0.8%. The “percent of cellular association” value in experiment [15] is 1.07%; in [17], 2.57%; in experiment [19] it was 0.83%; in [21], 60.7%; in [22], 1.13%; in experiment [23] it was 0.67%. The MFI in [2] was found to be 226; in [5], 445; in experiment [6], 246; in [8] it was 241; in experiment [10], 294; in experiment [11], 1110. Besides, the MFI in [12] turned out to be 250; in experiment [13], 800; in experiment [16], 228; in experiment [18] it was 224; in experiment [20], 237; in experiment [24], 50.8. The molecule also yielded an MFI in [25] of 235.

B2: Nanobody*-N3/DBCO-NHCO-PEG12TCO/(MeTzPh)PEG4CO-NHPEG24CO-[N(PN)2][Lys]2[Lys]4[Lys]8[Lys]16[Lys]32[((α-NHCy5)1(α-NHAc)31)(ε-NH-COPEG1100)32], Compound 126 (VHH)
VHH: EVQLVESGGSLVQPGGSLRLSCAASGFTFDDYAMSWVRQVPGKGLEWVSSINWSGTHTDYADSVKGRFTISRNNANNTLYLQMNSLKSEDTAVYYCAKNWRDAGTTWFEKSGSAGQGTQVTVSS
modifications: C-terminal # (unnatural amino acid, p-azido-phenylalanine) clicked to DBCO-NHCO-PEG12-TCO, joined to the tetrazine at the core of the G5 lysine dendrimer Compound 54 (1 Cy5, 31 acetyl, 32 PEG1100)
notes: G5 2D3 conjugated dendrimer
As to B2, the “percent of cellular association” value in [1] came to 0.7%; in [3], 1.03%; in experiment [4], 0.67%; in experiment [7], 18%; in [9], 59.8%; in [14] it was 1.37%. Moreover, the “percent of cellular association” value in experiment [15] amounted to 0.53%; in [17], 2.8%; in [19], 0.8%; in [21], 73.5%; in experiment [22] it was 0.73%; in experiment [23], 0.43%. In addition, the MFI in experiment [2] is 237; in [5] it was 436; in experiment [6] it was 195; in experiment [8], 233; in experiment [10], 295; in experiment [11], 2750. Also, the MFI in [12] stood at 247; in [13], 1040; in [16], 245; in experiment [18], 223; in experiment [20], 254; in experiment [24] it was 177. For the same molecule, the MFI in experiment [25] came to 207.

B3: Nanobody*-N3/DBCO-NHCO-PEG12TCO/((MeTzPh)PEG4CO-NHPEG24CO-[N(PN)2][Lys]2[Lys]4[Lys]8[Lys]16[((α-NHCy5)1(α-NHAc)15)(ε-NH-COPEG1100)16, Compound 125 (VHH)
VHH: EVQLVESGGSLVQPGGSLRLSCAASGFTFDDYAMSWVRQVPGKGLEWVSSINWSGTHTDYADSVKGRFTISRNNANNTLYLQMNSLKSEDTAVYYCAKNWRDAGTTWFEKSGSAGQGTQVTVSS
modifications: C-terminal # (unnatural amino acid, p-azido-phenylalanine) clicked to DBCO-NHCO-PEG12-TCO, joined to the tetrazine at the core of the G4 lysine dendrimer Compound 53 (1 Cy5, 15 acetyl, 16 PEG1100)
notes: also called G4 2D3 conjugated dendrimer
As for B3, the “percent of cellular association” value in experiment [1] was 0.67%; in experiment [3], 0.53%; in experiment [4] it was 0.83%; in experiment [7] it was 6.13%; in [9] it was 36%; in [14], 1%. Further, the “percent of cellular association” value in experiment [15] amounted to 0.87%; in [17] it was 0.77%; in [19] it was 0.87%; in experiment [21] it was 56.3%; in [22], 0.77%; in experiment [23], 0.57%. In addition, the MFI in experiment [2] worked out at 224; in experiment [5] it was 342; in experiment [6] it was 227; in experiment [8] it was 236; in [10], 241; in [11], 1010. Also, the MFI in experiment [12] was determined as 246; in [13], 611; in [16], 223; in [18], 219; in [20] it was 230; in [24] it was 158. For the same molecule, the MFI in experiment [25] came to 215.

For the origin of these results see patent US20240293588A1, “THERAPEUTIC CONJUGATES” (Starpharma Pty Ltd, priority 2020, published 2024).
